We go through five molecules from patent EP4653461A1 (DE NOVO BIOTHERAPEUTICS CO., LTD., dated 2025).

Where two headings read alike, the source gives them in different places.

The target of assay [1] is T1, 6506GJ130-1A: Human NKP46 Recombinant Protein (His) (human, UniProt O76036 22-258, limits assumed).
T1 construct: also called human NKp46 protein; not shown: His tag
Nature of the assay: competition ELISA, NKp46-His coated; no competitor (Control).

The target in assay [2] is T1, 6506GJ130-1A: Human NKP46 Recombinant …. Nature of the assay: competition ELISA, NKp46-His coated; competitor 1-2 at 20 ug/ml. (In an ELISA, binding on a coated surface is turned into a signal by an enzyme label.)
Assay [3] has the same target. Nature of the assay: competition ELISA, NKp46-His coated; competitor 1-8 at 20 ug/ml.
For assay [4] the target is unchanged. The assay can be described thus: competition ELISA, NKp46-His coated; competitor 2-1 at 20 ug/ml.
Assay [5] shares this target. Nature of the assay: competition ELISA, NKp46-His coated; competitor 2-2 at 20 ug/ml.
Assay [6] has the same target. The assay can be described thus: competition ELISA, NKp46-His coated; competitor 2-3 at 20 ug/ml.
For assay [7] the target is unchanged. The assay can be described thus: competition ELISA, NKp46-His coated; competitor 2-5 at 20 ug/ml.
Assay [8] shares this target. Nature of the assay: competition ELISA, NKp46-His coated; competitor 2-7 at 20 ug/ml.
Assay [9] has the same target. The assay can be described thus: competition ELISA, NKp46-His coated; competitor 1-10 at 20 ug/ml.
The target is the same in assay [10]. Nature of the assay: competition ELISA, NKp46-His coated; competitor 2-10 at 20 ug/ml.
Assay [11] shares this target. Nature of the assay: competition ELISA, NKp46-His coated; competitor 1-4-2 at 20 ug/ml.
The target is the same in assay [12]. The assay can be described thus: SPR, Biacore 8K, antibody captured on Protein A chip, NKp46 as analyte.
Assay [13] shares this target. The description is as above. The source holds these as a separate data set.
The target is the same in assay [14]. Nature of the assay: SPR, Biacore 8K; reference 2-5. On the technique in general: Surface plasmon resonance follows binding to a sensor surface in real time, without labels.
For assay [15] the target is unchanged. Nature of the assay: SPR, Biacore 8K; reference 1-2.
Assay [16] shares this target. Nature of the assay: SPR, Biacore 8K; reference 2-3.

T1 sequence (O76036 22-258 limits assumed): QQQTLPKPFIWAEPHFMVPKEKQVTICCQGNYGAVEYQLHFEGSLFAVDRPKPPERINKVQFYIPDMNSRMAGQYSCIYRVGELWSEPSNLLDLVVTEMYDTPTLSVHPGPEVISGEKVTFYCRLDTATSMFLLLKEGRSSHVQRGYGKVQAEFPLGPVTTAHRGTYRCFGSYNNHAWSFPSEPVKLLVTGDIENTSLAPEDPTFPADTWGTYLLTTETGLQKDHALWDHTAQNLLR

B1: 28E10B12 (2-3) (antibody, IgG4, V domains shown)
VH: QVQLQQPGAELVKPGASVKLSCKASGYTFTSYWMNWVKQRPGQGLEWIGMIHPNSDITNYNEKFKSQATLTVDKSSSTAYMQLSSLTSEDSAVYYCARHGRFDYWGQGTTLTVSS
VL: DIQMTQSPSSLSASLGERVTLTCRASQDIGSSLNWLQQEPDGTIKRLIYATSSLDSGVPKRFSGSRSGSDYSLTISSLESEDFVDYYCLQYASSPFTFGSGTKLEIK
notes: Hybridoma clone; made as mouse/human chimeric IgG4
In the case of B1, the ELISA signal in assay [1] stood at 1.38; in [2] it was 1.24; in assay [3], 1.43; in assay [4] it was 0.649; in [5] it was 0.16; in [6] it was 0.105. Besides, the ELISA signal in assay [7] was 1.43; in assay [8] it was 0.2; in assay [9], 0.408; in assay [10], 0.173; in [11] it was 1.09. Also, the Kd (as a rule, the equilibrium constant for the complex coming apart) in [12] is 0.24 to 30 nM; in [13] it was 0.244 nM. Further, the dissociation rate constant (koff) (usually the first-order rate constant of dissociation) in [13] is 0.000136 s⁻¹. For the same molecule, the kon (commonly the rate constant with which the complex forms) in [13] came out at 555000 M⁻¹ s⁻¹.

B2: Hu 2-5 (antibody, V domains shown)
VH: QVQLQESGPGLVKPSQTLSLTCTVSGYSITSDDYWNWIRQPPGKGLEWIGYISYEGSNNYNPSLKNRVTISRDTSKNQFSLKLSSVTAADTAVYYCARLGYPAMDAWGQGTLVTVSS
VL: DIQMTQSPSSLSASVGDRVTITCKASQDINSYLSWFQQKPGKAPKSLIYRANRLVDGVPSRFSGSGSGTDYTLTISSLQPEDFATYYCLQYDEFPWTFGGGTKLEIK
notes: Humanized form of 2-5; also called humanized 2-5
As to B2, the “fold change of KD against the unhumanized antibody” value (from here on “fold change of KD”) in [14] was not above 2 fold. For the same molecule, in assay [13], the Kd came out at 3.83 nM, the off-rate constant (koff) was found to be 7.05e-05 s⁻¹ and the kon came out at 18400 M⁻¹ s⁻¹.

B3: Hu 1-2 (antibody, V domains shown)
VH: QVQLVQSGAEVKKPGASVKVSCKASGYTFTDYYLNWVRQAPGQGLEWIGDIDPHNAGTSYNQKFKDRVTMTVDTSTSTVYMELSSLRSEDTAVYYCARFPIYYSGSSPMDYWGQGTLVTVSS
VL: DIQMTQSPSSLSASVGDRVTITCRTNENIFSYLAWYQQKPGKAPKLLIYNAKTLAEGVPSRFSGSGSGTDFTLTISSLQPEDFATYYCQHHYGTPYTFGGGTKLEIK
notes: Humanized form of 1-2; also called humanized 1-2
For the molecule B3, the “fold change of KD” value in [15] was not above 2 fold. Further, in assay [12], the Kd was in the range of 0.42 to 8.7 nM. Besides, in assay [13], the Kd is 8.66 nM, the koff turned out to be 0.000118 s⁻¹ and the kon came to 13700 M⁻¹ s⁻¹.

B4: Hu 2-3 (antibody, V domains shown)
VH: QVQLVQSGAEVKKPGASVKVSCKASGYTFTSYWMNWVRQAPGQGLEWIGMIHPNSDITNYNEKFKSRVTMTVDTSTSTVYMELSSLRSEDTAVYYCARHGRFDYWGQGTTVTVSS
VL: DIQMTQSPSSLSASVGDRVTITCRASQDIGSSLNWLQQKPGKAPKRLIYATSSLDAGVPKRFSGSGSGTDYTLTISSLQPEDFATYYCLQYASSPFTFGGGTKLEIK
notes: Humanized form of 2-3; also called humanized 2-3
As for B4, the “fold change of KD” value in [16] is not above 2 fold. In addition, the dissociation constant (Kd) in assay [12] was in the range of 0.42 to 8.7 nM. In assay [13], the Kd amounted to 0.421 nM, the koff came to 0.000138 s⁻¹ and the kon turned out to be 328000 M⁻¹ s⁻¹.

B5: u6506gj130-1-2 (1-2) (antibody, IgG4, V domains shown)
VH: EVQLQQSGPELVKPGASVKISCQASGYTFTDYYLNWVKQSHGKSLEWIGDIDPHNGGTSYNQKFKDKATLTVDKSSSTAYMELRSLTSEDSAVYYCARFPIYYSGSSPMDYWGQGTSVTVSS
VL: DIQMTQSPASLSASVGETVTITCRTNENIFSYLAWYQQKQGKSPQLLVYNAKTLAEGVPSRFSGSASGTQFSLKINTLQPEDFGSYYCQHHYGTPYTFGGGTKLEII
notes: Beacon screening clone; made as mouse/human chimeric IgG4 (mouse variable regions, human constant region)
Turning to B5, the ELISA signal turned out to be 1.54 in [1]; 0.1 in assay [2]; 1.63 in assay [3]; 1.24 in assay [4]; 1.23 in assay [5]; 1.28 in [6]. In addition, the ELISA signal was 1.46 in assay [7]; 1.15 in assay [8]; 1.19 in assay [9]; 1.24 in [10]; 0.178 in assay [11]. Moreover, the Kd in assay [13] amounted to 4.29 nM. In assay [13], the koff is 0.00012 s⁻¹. For the same molecule, in assay [13], the kon came out at 27900 M⁻¹ s⁻¹.
